Test system: MS2 coat protein
Test: apparent KD of MS2 coat protein; designed switch direction (-1 OFF switch, 1 ON switch): 1; higher = weaker reporter binding
Method in brief: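 Designed RNA switches sharing common flanks were transcribed on Illumina chips by stalled E. coli RNA polymerase. They were titrated with SNAP-549-labelled MS2 coat protein, from 0.7 or 1.5 nM doubling to 3 µM, in Tris-HCl pH 7.5 buffer with KCl, MgCl2, BSA, DTT, tRNA and Tween-20. Titrations ran without input, with 200 uM small-molecule ligand, or with an oligonucleotide input. The apparent KD of each design is the median over its clusters, after curve-fitting of normalised cluster fluorescence.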

[1] = Eterna round: R95, input ligand: FMN 200 uM
[2] = Eterna round: R95, input ligand: microRNA oligo, concentration not stated
[3] = Eterna round: R95, input ligand: none
[4] = input ligand: microRNA oligo, concentration not stated

| Sequence | apparent KD of MS2 coat protein [1] [nM] | apparent KD of MS2 coat protein [2] [nM] | apparent KD of MS2 coat protein [3] [nM] | apparent KD of MS2 coat protein (input ligand: FMN 200 uM) [nM] | apparent KD of MS2 coat protein [4] [nM] | apparent KD of MS2 coat protein (input ligand: none) [nM] |
| --- | --- | --- | --- | --- | --- | --- |
| UGGAUCUAGGCUUGCCUGGGUCCAUGUUGACAUGAGGAUCACCCAUGUGUAUUUUAUAAGCUUUUUGUUUGUCAACU [JL A Humble Attempt mod 8] (puzzle: Sensor for hsa-mir-208a) | 25.7 | 12.8 | 28.4 | – | – | – |
| UCAGUCAUGUAAGGAUAUGCAGCCGAAACGGCUGCAGAAGGUACUAUAAUUACAUGAGGAUCACCCAUGUUAUAAAAUUUAUAU [Mat - Same State NG 1 - JL mod - D64] (Eterna round: R96, puzzle: Same State NG 1) | – | – | – | 24.4 | 44.9 | 58.8 |
| ACAUGAAAUACAGGAUAUUUUGUACCUACAUGUGACAUGAGGAUCACCCAUGUGGUAAGUAUAAGAGAGAAGGGUAAGAUAUGU [Equivalence 4 - Jieux - Same State NG 2] (Eterna round: R96, puzzle: Same State NG 2) | – | – | – | 50.1 | 43.8 | 66.4 |
| AGUAGUUUAACAUGAGGAUCACCCAUGUAUCUAUCUGUAACCUAGGAUAUGGAGGUUUUAUUUAACCAGAAGGAGGAUUGUUUA [JR_SSNG3_Sub044] (Eterna round: R96, puzzle: Same State NG 3) | – | – | – | 19.8 | 17.6 | 24.2 |
| GUUACAUGAGGAUCACCCAUGUAUGUGUGGGAGUAAGUGUCUUAGGAUAUCUAUCAUUUAAUGUAAGAGAAGGAAGAUUGUUGU [JMF's solution 97] (Eterna round: R96, puzzle: Same State NG 3) | – | – | – | 122 | 106 | 118 |
| UUCGAGUAGCAAGGAUAUCUUAUUUAGAUUUUAAGAGAAGGUGCUUAUUAGAAACAUGAGGAUCACCCAUGUAUUACUUCUUAU [JR_SSNG1_Sub066] (Eterna round: R96, puzzle: Same State NG 1) | – | – | – | 14.1 | 13.8 | 20.1 |
| GGAUCGGAGGCAGGAUAUGGGCUCAGAACAUGAGGAUCACCCAUGUAAAACGGCGCAAUGCGCCACCAGAAGGGCCUCCGACCG [Inmadibi] (Eterna round: R96, puzzle: Same State NG 2) | – | – | – | 8.62 | 17.8 | 44.7 |
| AAUAAUUUACAUGAGGAUCACCCAUGUGGUAAACAUGCUUUUUGCUCGUCUUAUGGUUUUUUUUUUUUUUUUUUUUU [viviankchen1] (puzzle: Sensor for hsa-mir-208a version 2) | 91 | 49.6 | 130 | – | – | – |
| AUUAAACAUGAGGAUCACCCAUGUCAACAAAGUCGAGGAUAUGGGCAAAUAAAAUAUGAACCAGAAGGCGAAUAAU [salish99_ss1_r3_064] (puzzle: Same State 1) | 32.1 | 220 | 412 | – | – | – |
| UGGUACAUGGGAGGAUAUCUCGUAGAGACAUGAGGAUCACCCAUGUAGAUGGCCGGUAACCGGGAAGAGAAGGCCCAUGUACCU [JL SSNG1 3.66] (Eterna round: R96, puzzle: Same State NG 2) | – | – | – | 203 | 56.1 | 82.6 |
| GUAACAUGACGAGGAUAUGGAACAUGAGGAUCACCCAUGUAUGUUCCAUAACGCGAAUGACGAAUCCAGAAGGCGUCGUGAAUG [Mat - Same State NG 2 - JL mod - D29] (Eterna round: R96, puzzle: Same State NG 2) | – | – | – | 41.7 | 124 | 220 |
| CUACGCGCCGCAGGAUAUGCCGACCCGUGUUGAGCAGAAGGGCGCAACAUGAGGAUCACCCAUGUUGAAAGAGCGCAAAAUUAA [Zaesre] (Eterna round: R96, puzzle: Same State NG 1) | – | – | – | 11.1 | 12.5 | 16 |
| AGUCCAGCCUGAGCUGGACAAAAGCAUGUACAUGAGGAUCACCCAUGUCAUGUGCAAGCUUUUUGCUCGUCUUAAAA [Zipper 46 - 6] (puzzle: Sensor for hsa-mir-208a) | 61 | 11.6 | 67.9 | – | – | – |
| GCGGACCUGACAUGAGGAUCACCCAUGUUGCGGAGACGCAAUGAGGAUAUCGAUGGGUUUCCCGUCGAGAAGGCAUAAAUCCGC [JL SSNG3 3.93 mod 3] (Eterna round: R96, puzzle: Same State NG 3) | – | – | – | 15.1 | 16 | 25.2 |
| UAUCGUUUGAUAGGAUAUCGCUAUACAUGAGGAUCACCCAUGUUUACCACGCUGGUUUUUCAUACCGAGAAGGAUUCUGAUGAA [salish99_SSNG02_r04_004] (Eterna round: R96, puzzle: Same State NG 2) | – | – | – | 29 | 19.6 | 32.5 |
| UCAAUCAUGUAAGGAUAUGCAGCCGAAACGGCUGCAGAAGGUACUAUAAUUACAUGAGGAUCACCCAUGUUAUAAAAUUAAAAU [Mat - Same State NG 1 - JL mod - D69] (Eterna round: R96, puzzle: Same State NG 1) | – | – | – | 35.3 | 101 | 130 |
| GGUAUGGACACAGGAUAUGCUUACGAAACGUAAGCAGAAGGGUGAACAUGAGGAUCACCCAUGUACGUACCAGGGCGUGAGCCC [JL SSNG1 1.76] (Eterna round: R96, puzzle: Same State NG 1) | – | – | – | 440 | 157 | 92.4 |
| GGACGUCAUCUCACUGAUUAACAUGAGGAUCACCCAUGUUCACAGGAUAUGAGUCCGAUUAGGACUCAGAAGGGUGAGACGUCC [Fiskers NG3ss - 47] (Eterna round: R96, puzzle: Same State NG 3) | – | – | – | 19.3 | 16.8 | 19.3 |
| GAAUAGUUGAGAGGAUAUGGAUUAUUGUAGGAUCCAGAAGGUUUUAACAUGAGGAUCACCCAUGUAGGACUAUAUAUGUGAAUA [Parity 97 - Jieux - Same State NG 1] (Eterna round: R96, puzzle: Same State NG 1) | – | – | – | 13.1 | 11.7 | 19.5 |
| GUAGCAUACCGAGGAUAUUCAUAACAUGAGGAUCACCCAUGUUAGGCCAGCAUUAGCUGGCCUUGGGAGAAGGCGGAAUGCUAC [Xeonanis - 20 Mod52] (Eterna round: R96, puzzle: Same State NG 2) | – | – | – | 17.5 | 14.5 | 22.2 |
| AUUAAACAUGAGGAUCACCCAUGUCAACAAAGUCGAGGAUAUGGGCAAAUAAAAUAUGAACCAGAAGGCGAAUAAU [salish99_ss1_r3_064] (Eterna round: R96, puzzle: Same State 1) | – | – | – | 32.9 | 208 | 263 |
| AACGGUGCUUGAAAUAGUCACAUGAGGAUCACCCAUGUUAGGCAGGAUAUGUGUCUAAGACGACCGCAGAAGGGCUCAAGCGAU [Eternabot solution 41] (Eterna round: R96, puzzle: Same State NG 3) | – | – | – | 49.5 | 26.9 | 34.6 |
| UCUUGGUUUUUGCUCGUUUUUUGUGUUGAACAUGAGGAUCACCCAUGUAUUGUACAGUCCAAUUUGAUAAUGGUCCG [JMF 54] (puzzle: Sensor for hsa-mir-208a) | 37.6 | 32.3 | 44 | – | – | – |
| GGAAUAUGAUGUUACAUGAGGAUCACCCAUGUAGUGAUAACUAAGGAUAUUUGAAAGGAAGGAGAAGAGAAGGUAGGAUCAUAA [AK SSNG3-V2-12] (Eterna round: R96, puzzle: Same State NG 3) | – | – | – | 50.9 | 34.3 | 55.4 |
| AUUUCUAGCAUAGGAUAUCAUGCGAAAAUUGCGUGAGAAGGGUGGACGCUGUCAUUCACGGAAGACAUGAGGAUCACCCAUGUC [SameState NG1 #75] (Eterna round: R96, puzzle: Same State NG 1) | – | – | – | 76.6 | 67.6 | 87.2 |
| AGAUCAUGACGAGGAUAUGGAACAUGAGGAUCACCCAUGUAUGUUCCAUAACGCGAACGACGAAUCCAGAAGGCGUCGUGGUCA [JL SSNG2 1.09] (Eterna round: R96, puzzle: Same State NG 2) | – | – | – | 7.15 | 18.6 | 28.3 |
| UUUAGUGGCGGGCAGGAUAUGUAUUAAAAUACAUGAGGAUCACCCAUGUGCGGGUAUAACACCCGACAGAAGGGCCAAUCGCUAC [Laonerce - 7] (puzzle: Same State 2) | 20.9 | 275 | 397 | – | – | – |
| AUGGUGCAGGUACAGGAUAUGUUGCUCGUAACAUGAGGAUCACCCAUGUACCUAUGAGAUUAAAUGCAGAAGGGUGCACACCACA [Mat - Same State 2 - Mod of UCT - D88] (puzzle: Same State 2) | 40.8 | 325 | 283 | – | – | – |
| GAGAAGAGGGACAAGGAUAUGUCAGGAGAGACAUGAGGAUCACCCAUGUAGAGGUUGGAGGAGAGACAGAAGGUGUCGAGAGCGA [JR_SS2_Sub014] (puzzle: Same State 2) | 123 | 143 | 361 | – | – | – |
| GGCUAGCCUCAAGGAUAUACGCUCUCAACAAAGAACCGACUACAUGAGGAUCACCCAUGUACCAUGUAGAAGGUGAGGUUAGCC [Eternabot solution 4] (Eterna round: R96, puzzle: Same State NG 2) | – | – | – | – | 397 | – |
